Two molecules from patent US20250179139A1 (CENTRO DE INMUNOLOG A MOLECULAR, published 2025) can be followed below.

One may read the Kd as the equilibrium constant for the complex coming apart. In general, koff refers to the first-order rate constant of dissociation. For orientation: kon means the second-order rate constant of association. A higher kon goes with faster complex formation.

The labels stand for the following.
B1: IL-2 variant 1A displayed on phage (S2 library) (other, not shown: large carriers; small tags and cut ends)
chain: TSSSTKKTQLQLEHLLLDLQMILNGINNYKNPKLTRMLTFKFYMPKKATELKHLQCLEEELKPLEEVLNLAQSKNFHFDPHDVVENINVLLLELKGSETTFMCEYADETATIVEFLNRWITFSQSIISTLT
notes: Substitutions are derived from the segment name printed for the fusion protein built from this clone
B2: recombinant extracellular domain of the human IL-2 receptor beta subunit (receptor, UniProt P14784 27-240, looked up)
chain: AVNGTSQFTCFYNSRANISCVWSQDGALQDTSCQVHAWPDRRRWNQTCELLPVSQASWACNLILGAPDSQKLTTVDIVTLRVLCREGVRWRVMAIQDFKPFENLRLMAPISLQVVHVETHRCNISWEISQASHYFERHLEFEARTLSPGHTWEEAPLLTLKQKQEWICLETLTPDTQYEFQVRVKPLQGEFTTWSPWSQPLAFRTKPAALGKDT
notes: extracellular domain; also called beta chain of the IL-2 receptor; beta subunit of the receptor

Assay [1] deals with B2. The experiment in a line: phage ELISA; ratio of the signal on the beta subunit extracellular domain to the signal on anti-c-myc antibody 9E10 (display level); anti-M13 antibody-HRP.
Procedure: The binding capacity of the new variants to the extracellular domain of the IL-2 receptor beta subunit was assessed by ELISA. For this purpose, plates were coated with the recombinant extracellular domain of the IL-2 receptor beta subunit. The bound phages were detected with an anti-M13 antibody conjugated to horseradish peroxidase. Simultaneously, their binding to a plate coated with the monoclonal antibody 9E10 directed against the c-myc peptide that is fused to the proteins presented on the phages was determined to establish the display levels of each. The ratio between the signals obtained with both coating molecules (relative reactivity) is plotted as a measure of the intrinsic binding capacity of each variant to the beta-subunit.
The target of assay [2] is T1, IL-2/Fc (K35E) fusion protein (human, UniProt P60568 21-153).
T1 construct: mature; IL-2 fused to the N-terminal end of human IgG1 Fc; also called fusion protein derived from the original IL-2; human IL-2/Fc fusion protein
T1 sequence (P60568 other isoform, or with tags, fused parts or gaps K35E K35E limits assumed): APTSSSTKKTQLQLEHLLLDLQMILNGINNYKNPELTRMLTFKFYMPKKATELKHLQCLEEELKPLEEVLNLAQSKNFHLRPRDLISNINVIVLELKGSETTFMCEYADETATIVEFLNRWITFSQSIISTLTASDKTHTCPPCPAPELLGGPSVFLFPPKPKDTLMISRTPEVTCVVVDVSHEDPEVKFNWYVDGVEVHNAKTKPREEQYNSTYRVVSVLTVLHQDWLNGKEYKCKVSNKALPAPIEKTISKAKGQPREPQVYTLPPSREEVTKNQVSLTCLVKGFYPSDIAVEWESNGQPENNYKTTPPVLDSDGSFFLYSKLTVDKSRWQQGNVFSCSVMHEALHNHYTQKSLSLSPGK
As to the kind of experiment: BIAcore (SPR); format not stated. In general terms: SPR reads the build-up and loss of mass on a sensor chip optically.

Assay [3] deals with T2, H9/Fc (K35E) fusion protein (human, UniProt P60568 21-153).
T2 construct: mature; Same format as the other Fc fusions; also called fusion protein based on the H9 superkine
T2 sequence (P60568 other isoform, or with tags, fused parts or gaps K35E K35E limits assumed): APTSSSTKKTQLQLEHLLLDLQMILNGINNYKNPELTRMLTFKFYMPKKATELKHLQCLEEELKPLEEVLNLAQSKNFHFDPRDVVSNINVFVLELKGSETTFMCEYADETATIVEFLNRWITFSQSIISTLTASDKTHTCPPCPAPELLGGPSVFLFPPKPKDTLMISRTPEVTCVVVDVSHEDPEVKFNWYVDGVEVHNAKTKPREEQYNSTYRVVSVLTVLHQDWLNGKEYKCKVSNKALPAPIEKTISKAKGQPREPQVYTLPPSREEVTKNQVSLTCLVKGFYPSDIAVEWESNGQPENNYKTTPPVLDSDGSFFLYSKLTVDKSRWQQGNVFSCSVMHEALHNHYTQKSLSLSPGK
The experiment in a line: BIAcore (SPR); format not stated.

Regarding B1, in assay [1], the binding result is on record as “binds”.

As to B2, in assay [2], the Kd stood at 106 nM, the koff amounted to 0.00326 s⁻¹ and the on-rate constant (kon) is 30800 M⁻¹ s⁻¹. Further, in assay [3], the Kd was 4.09 nM, the dissociation rate constant (koff) was found to be 0.000395 s⁻¹ and the kon was 97200 M⁻¹ s⁻¹.
